Measurements reported in IntAct's records for PubMed 16000308.

B1: Melanoma-associated antigen D1 (Homo sapiens), Q9Y5V3 (parent)
chain: MAQKMDCGAGLLGFQAEASVEDSALLMQTLMEAIQISEAPPTNQATAAASPQSSQPPTANEMADIQVSAAAARPKSAFKVQNATTKGPNGVYDFSQAHNAKDVPNTQPKAAFKSQNATPKGPNAAYDFSQAATTGELAANKSEMAFKAQNATTKVGPNATYNFSQSLNANDLANSRPKTPFKAWNDTTKAPTADTQTQNVNQAKMATSQADIETDPGISEPDGATAQTSADGSQAQNLESRTIIRGKRTRKINNLNVEENSSGDQRRAPLAAGTWRSAPVPVTTQNPPGAPPNVLWQTPLAWQNPSGWQNQTARQTPPARQSPPARQTPPAWQNPVAWQNPVIWPNPVIWQNPVIWPNPIVWPGPVVWPNPLAWQNPPGWQTPPGWQTPPGWQGPPDWQGPPDWPLPPDWPLPPDWPLPTDWPLPPDWIPADWPIPPDWQNLRPSPNLRPSPNSRASQNPGAAQPRDVALLQERANKLVKYLMLKDYTKVPIKRSEMLRDIIREYTDVYPEIIERACFVLEKKFGIQLKEIDKEEHLYILISTPESLAGILGTTKDTPKLGLLLVILGVIFMNGNRASEAVLWEALRKMGLRPGVRHPLLGDLRKLLTYEFVKQKYLDYRRVPNSNPPEYEFLWGLRSYHETSKMKVLRFIAEVQKRDPRDWTAQFMEAADEALDALDAAAAEAEARAEARTRMGIGDEAVSGPWSWDDIEFELLTWDEEGDFGDPWSRIPFTFWARYHQNARSRFPQTFAGPIIGPGGTASANFAANFGAIGFFWVE
partner: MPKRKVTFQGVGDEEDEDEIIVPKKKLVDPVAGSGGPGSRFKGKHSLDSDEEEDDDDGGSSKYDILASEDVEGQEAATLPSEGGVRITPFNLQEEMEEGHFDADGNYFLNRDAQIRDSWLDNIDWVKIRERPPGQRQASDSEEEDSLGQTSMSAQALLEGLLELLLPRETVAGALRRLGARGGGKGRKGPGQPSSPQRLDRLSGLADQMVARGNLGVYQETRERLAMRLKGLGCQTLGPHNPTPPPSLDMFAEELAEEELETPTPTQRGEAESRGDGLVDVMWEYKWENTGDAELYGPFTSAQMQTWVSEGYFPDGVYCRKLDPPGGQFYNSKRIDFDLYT

Variants of: B1
Conditions: with cd2b2_human CD2BP2, O95400

Question: With Q387C as the variant, how does the “effect of a mutation on the interaction” value read?
Answer: disrupting interaction strength

Question: For Q387D, which “effect of a mutation on the interaction” value is on record?
Answer: disrupting interaction strength

Question: Which “effect of a mutation on the interaction” value does the source give for Q387E here?
Answer: disrupting interaction strength

Question: Q387W was tested. Which “effect of a mutation on the interaction” value did it give?
Answer: disrupting interaction strength

Question: Which “effect of a mutation on the interaction” value does the source give for Q387A here?
Answer: decreasing interaction strength

Question: Which “effect of a mutation on the interaction” value does the source give for Q387Y here?
Answer: disrupting interaction strength

Question: With P378D as the variant, how does the “effect of a mutation on the interaction” value read?
Answer: decreasing interaction strength

Question: P378G was tested. Which “effect of a mutation on the interaction” value did it give?
Answer: decreasing interaction strength

Question: Which “effect of a mutation on the interaction” value does the source give for P378E here?
Answer: decreasing interaction strength

Question: With P378H as the variant, how does the “effect of a mutation on the interaction” value read?
Answer: decreasing interaction strength

Question: Which “effect of a mutation on the interaction” value does the source give for P378A here?
Answer: decreasing interaction strength

Question: For P378C, which “effect of a mutation on the interaction” value is on record?
Answer: decreasing interaction strength

Question: For P378W, which “effect of a mutation on the interaction” value is on record?
Answer: decreasing interaction strength

Question: How did the “effect of a mutation on the interaction” value turn out when P378M was run?
Answer: decreasing interaction strength

Question: Which “effect of a mutation on the interaction” value does the source give for Q381C here?
Answer: decreasing interaction strength

Question: With Q381Y as the variant, how does the “effect of a mutation on the interaction” value read?
Answer: decreasing interaction strength

Question: With Q381E as the variant, how does the “effect of a mutation on the interaction” value read?
Answer: decreasing interaction strength

Question: Which “effect of a mutation on the interaction” value does the source give for Q381D here?
Answer: decreasing interaction strength

Question: With T388C as the variant, how does the “effect of a mutation on the interaction” value read?
Answer: decreasing interaction strength

Question: How did the “effect of a mutation on the interaction” value turn out when T388D was run?
Answer: decreasing interaction strength

Question: With T388E as the variant, how does the “effect of a mutation on the interaction” value read?
Answer: decreasing interaction strength

Question: W386C was tested. Which “effect of a mutation on the interaction” value did it give?
Answer: disrupting interaction strength

Question: How did the “effect of a mutation on the interaction” value turn out when W386M was run?
Answer: decreasing interaction strength

Question: For W386K, which “effect of a mutation on the interaction” value is on record?
Answer: decreasing interaction strength

Question: W386N was tested. Which “effect of a mutation on the interaction” value did it give?
Answer: disrupting interaction strength

Question: How did the “effect of a mutation on the interaction” value turn out when W386D was run?
Answer: disrupting interaction strength

Question: How did the “effect of a mutation on the interaction” value turn out when W386H was run?
Answer: disrupting interaction strength

Question: How did the “effect of a mutation on the interaction” value turn out when W386A was run?
Answer: disrupting interaction strength

Question: W386E was tested. Which “effect of a mutation on the interaction” value did it give?
Answer: disrupting interaction strength

Question: W386S was tested. Which “effect of a mutation on the interaction” value did it give?
Answer: decreasing interaction strength

Question: For W386T, which “effect of a mutation on the interaction” value is on record?
Answer: disrupting interaction strength

Question: With W386I as the variant, how does the “effect of a mutation on the interaction” value read?
Answer: decreasing interaction strength

Question: With W386P as the variant, how does the “effect of a mutation on the interaction” value read?
Answer: decreasing interaction strength

Question: How did the “effect of a mutation on the interaction” value turn out when W386G was run?
Answer: disrupting interaction strength

Question: How did the “effect of a mutation on the interaction” value turn out when W386V was run?
Answer: disrupting interaction strength

Question: How did the “effect of a mutation on the interaction” value turn out when P383E was run?
Answer: disrupting interaction strength

Question: How did the “effect of a mutation on the interaction” value turn out when P383L was run?
Answer: disrupting interaction strength

Question: For P383H, which “effect of a mutation on the interaction” value is on record?
Answer: disrupting interaction strength

Question: How did the “effect of a mutation on the interaction” value turn out when P383K was run?
Answer: disrupting interaction strength

Question: For P383M, which “effect of a mutation on the interaction” value is on record?
Answer: disrupting interaction strength

Question: Which “effect of a mutation on the interaction” value does the source give for P383D here?
Answer: disrupting interaction strength

Question: How did the “effect of a mutation on the interaction” value turn out when P383V was run?
Answer: disrupting interaction strength

Question: With P383G as the variant, how does the “effect of a mutation on the interaction” value read?
Answer: disrupting interaction strength

Question: How did the “effect of a mutation on the interaction” value turn out when P383C was run?
Answer: disrupting interaction strength

Question: With P383Y as the variant, how does the “effect of a mutation on the interaction” value read?
Answer: disrupting interaction strength

Question: P383A was tested. Which “effect of a mutation on the interaction” value did it give?
Answer: disrupting interaction strength

Question: For P383S, which “effect of a mutation on the interaction” value is on record?
Answer: disrupting interaction strength

Question: How did the “effect of a mutation on the interaction” value turn out when P383W was run?
Answer: disrupting interaction strength

Question: Which “effect of a mutation on the interaction” value does the source give for P383F here?
Answer: disrupting interaction strength

Question: Which “effect of a mutation on the interaction” value does the source give for P383N here?
Answer: disrupting interaction strength

Question: P383Q was tested. Which “effect of a mutation on the interaction” value did it give?
Answer: disrupting interaction strength

Question: P383T was tested. Which “effect of a mutation on the interaction” value did it give?
Answer: disrupting interaction strength

Question: P383I was tested. Which “effect of a mutation on the interaction” value did it give?
Answer: disrupting interaction strength

Question: P383R was tested. Which “effect of a mutation on the interaction” value did it give?
Answer: disrupting interaction strength

Question: T382N was tested. Which “effect of a mutation on the interaction” value did it give?
Answer: decreasing interaction strength

Question: How did the “effect of a mutation on the interaction” value turn out when T382E was run?
Answer: disrupting interaction strength

Question: How did the “effect of a mutation on the interaction” value turn out when T382L was run?
Answer: disrupting interaction strength

Question: For T382M, which “effect of a mutation on the interaction” value is on record?
Answer: decreasing interaction strength

Question: With T382D as the variant, how does the “effect of a mutation on the interaction” value read?
Answer: disrupting interaction strength

Question: Which “effect of a mutation on the interaction” value does the source give for T382C here?
Answer: disrupting interaction strength

Question: W380E was tested. Which “effect of a mutation on the interaction” value did it give?
Answer: disrupting interaction strength

Question: W380A was tested. Which “effect of a mutation on the interaction” value did it give?
Answer: decreasing interaction strength

Question: With W380D as the variant, how does the “effect of a mutation on the interaction” value read?
Answer: decreasing interaction strength

Question: For G379A, which “effect of a mutation on the interaction” value is on record?
Answer: decreasing interaction strength

Question: How did the “effect of a mutation on the interaction” value turn out when G379E was run?
Answer: decreasing interaction strength

Question: With G379D as the variant, how does the “effect of a mutation on the interaction” value read?
Answer: decreasing interaction strength

Question: G379C was tested. Which “effect of a mutation on the interaction” value did it give?
Answer: decreasing interaction strength

Question: Which “effect of a mutation on the interaction” value does the source give for G379W here?
Answer: decreasing interaction strength

Question: For P384M, which “effect of a mutation on the interaction” value is on record?
Answer: disrupting interaction strength

Question: For P384H, which “effect of a mutation on the interaction” value is on record?
Answer: disrupting interaction strength

Question: P384W was tested. Which “effect of a mutation on the interaction” value did it give?
Answer: disrupting interaction strength

Question: With P384E as the variant, how does the “effect of a mutation on the interaction” value read?
Answer: disrupting interaction strength

Question: Which “effect of a mutation on the interaction” value does the source give for P384L here?
Answer: disrupting interaction strength

Question: How did the “effect of a mutation on the interaction” value turn out when P384T was run?
Answer: disrupting interaction strength

Question: Which “effect of a mutation on the interaction” value does the source give for P384Y here?
Answer: disrupting interaction strength

Question: P384R was tested. Which “effect of a mutation on the interaction” value did it give?
Answer: disrupting interaction strength

Question: P384K was tested. Which “effect of a mutation on the interaction” value did it give?
Answer: disrupting interaction strength

Question: Which “effect of a mutation on the interaction” value does the source give for P384I here?
Answer: disrupting interaction strength

Question: P384D was tested. Which “effect of a mutation on the interaction” value did it give?
Answer: disrupting interaction strength

Question: P384C was tested. Which “effect of a mutation on the interaction” value did it give?
Answer: disrupting interaction strength

Question: How did the “effect of a mutation on the interaction” value turn out when P384G was run?
Answer: disrupting interaction strength

Question: Which “effect of a mutation on the interaction” value does the source give for P384V here?
Answer: disrupting interaction strength

Question: Which “effect of a mutation on the interaction” value does the source give for P384N here?
Answer: disrupting interaction strength

Question: P384Q was tested. Which “effect of a mutation on the interaction” value did it give?
Answer: disrupting interaction strength

Question: With P384A as the variant, how does the “effect of a mutation on the interaction” value read?
Answer: disrupting interaction strength

Question: Which “effect of a mutation on the interaction” value does the source give for P384S here?
Answer: disrupting interaction strength

Question: With P384F as the variant, how does the “effect of a mutation on the interaction” value read?
Answer: disrupting interaction strength

Question: G385K was tested. Which “effect of a mutation on the interaction” value did it give?
Answer: disrupting interaction strength

Question: G385C was tested. Which “effect of a mutation on the interaction” value did it give?
Answer: disrupting interaction strength

Question: For G385N, which “effect of a mutation on the interaction” value is on record?
Answer: disrupting interaction strength

Question: Which “effect of a mutation on the interaction” value does the source give for G385H here?
Answer: disrupting interaction strength

Question: With G385Q as the variant, how does the “effect of a mutation on the interaction” value read?
Answer: disrupting interaction strength

Question: Which “effect of a mutation on the interaction” value does the source give for G385E here?
Answer: disrupting interaction strength

Question: With G385D as the variant, how does the “effect of a mutation on the interaction” value read?
Answer: disrupting interaction strength

Question: Which “effect of a mutation on the interaction” value does the source give for G385F here?
Answer: disrupting interaction strength

Question: Which “effect of a mutation on the interaction” value does the source give for G385W here?
Answer: disrupting interaction strength

Question: Which “effect of a mutation on the interaction” value does the source give for G385L here?
Answer: disrupting interaction strength

Question: How did the “effect of a mutation on the interaction” value turn out when G385T was run?
Answer: disrupting interaction strength

Question: Which “effect of a mutation on the interaction” value does the source give for G385A here?
Answer: disrupting interaction strength

Question: Which “effect of a mutation on the interaction” value does the source give for G385I here?
Answer: disrupting interaction strength

Question: Which “effect of a mutation on the interaction” value does the source give for G385R here?
Answer: decreasing interaction strength

Question: Which “effect of a mutation on the interaction” value does the source give for G385M here?
Answer: disrupting interaction strength

Question: For G385S, which “effect of a mutation on the interaction” value is on record?
Answer: disrupting interaction strength

Question: How did the “effect of a mutation on the interaction” value turn out when G385Y was run?
Answer: disrupting interaction strength

Question: Which “effect of a mutation on the interaction” value does the source give for G385P here?
Answer: decreasing interaction strength
